± gives the uncertainty stated by the source.
Experiment: self-splicing fitness, log relative to wild type (ln ratio); higher = more splicing; Tetrahymena group I intron in knt gene, E. coli kanamycin selection, DiMSum; sequences stand for … in CUCUCU…GGAGGGAAAAGUUAUCAGGCAUGCACCUGGUAGCUAGUCUUUAAACCAAUAGAUUGCAUCGGUUUAAAAGGCAAGACCGUCAAAUUGCGGGAAAGGGGUCAACAGCCGUUCAGUACCAAGUCUCAGGGGAAACUUUGAGAUGGCCUUGCAAAGGGUAUGGUAAUAAGCUGACGGACAUGGUCCUAACCACGCAGCCAAGUCCUAAGUCAACAGAUCUUCUGUUGAUAUGGAUGCAGUUCACAGACUAAAUGUCGGUCGGGGAAGAUGUAUUCUUCUCAUAAGAUAUAGUCGGACCUCUCCUUAAUGGGAGCUAGCGGAUGAAGUGAUGCAACACUGGAGCCGCUGGGAACUAAUUUGUAUGCGAAAGUAUAUUGAUUAGUUUUGGAGUACUCGUGGUCG
Procedure, shortened: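 Six replicate transformations of E. coli BL21(DE3) with a pET-22b(+) library were grown overnight at 37°C or 30°C. The library randomised all eight P1ex-region intron nucleotides, the intron lying in the knt kanamycin-resistance gene, and plates were LB agar with or without 25 μg/mL kanamycin plus 100 μg/mL carbenicillin, 50 μM IPTG and 0.2% rhamnose. Pooled colonies were amplicon-sequenced on an Illumina HiSeq 2500, and fitness is the DiMSum error-weighted combination of wild-type-normalised replicate fold changes, kanamycin versus none.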

| Sequence | self-splicing fitness (ln) (30 °C) | self-splicing fitness (ln) (37 °C) |
| --- | --- | --- |
| UUACAGCAAUAUUACGCUAG | -0.779 ± 0.11 | -0.391 ± 0.11 |
| UGGAAGCAAUAUUACGGGCG | -0.122 ± 0.1 | -0.0506 ± 0.11 |
| CACAAGCAAUAUUACGCGUC | -2.54 ± 0.13 | -2.15 ± 0.18 |
| CCGAAGCAAUAUUACGUAUA | – | -2.51 ± 0.41 |
| GAUAAGCAAUAUUACGGUUU | -1.22 ± 0.056 | -0.908 ± 0.069 |
| GUGGAGCAAUAUUACGUGGA | -2.92 ± 0.28 | -3.07 ± 0.36 |
| GAAAAGCAAUAUUACGCAGC | -2.9 ± 0.17 | -1.74 ± 0.19 |
| AUACAGCAAUAUUACGAAAA | -2.58 ± 0.26 | -1.4 ± 0.18 |
| UCUUAGCAAUAUUACGCAAG | -1.34 ± 0.2 | -2.48 ± 0.28 |
| CGGGAGCAAUAUUACGUGGA | -2.06 ± 0.15 | -3.14 ± 0.23 |
| CUCCAGCAAUAUUACGUCGU | -3.07 ± 0.12 | -2.72 ± 0.18 |
| GAGAAGCAAUAUUACGACUA | -0.502 ± 0.061 | 0.183 ± 0.082 |
| ACACAGCAAUAUUACGAUUA | -1.66 ± 0.087 | -0.929 ± 0.07 |
| AGCAAGCAAUAUUACGGCUA | -1.07 ± 0.088 | -0.869 ± 0.093 |
| GACCAGCAAUAUUACGGCCU | -2.51 ± 0.13 | -0.969 ± 0.11 |
| UUAUAGCAAUAUUACGGCGU | -2.88 ± 0.34 | -1.7 ± 0.23 |
| GGACAGCAAUAUUACGCCAU | -1.98 ± 0.26 | -2.03 ± 0.46 |
| UCACAGCAAUAUUACGCCUA | -1.95 ± 0.3 | -0.577 ± 0.18 |
| UAGGAGCAAUAUUACGUGGC | – | -0.624 ± 0.36 |
| UGGAAGCAAUAUUACGACCC | -0.0757 ± 0.24 | -0.147 ± 0.25 |
| CGAGAGCAAUAUUACGUUUU | -3.09 ± 0.24 | -2.79 ± 0.25 |
| UAUUAGCAAUAUUACGUGUG | -0.846 ± 0.067 | -0.549 ± 0.084 |
| ACAGAGCAAUAUUACGUGGU | -3.82 ± 0.2 | -2.37 ± 0.21 |
| UCUAAGCAAUAUUACGGUAA | -3.48 ± 0.36 | -1.33 ± 0.19 |
| AGAAAGCAAUAUUACGUGUC | -4.33 ± 0.31 | -1.67 ± 0.18 |
| GUGGAGCAAUAUUACGGAUU | -3.15 ± 0.47 | – |

| Sequence | self-splicing fitness (ln) (30 °C) | self-splicing fitness (ln) (37 °C) |
| --- | --- | --- |
| UGUAAGCAAUAUUACGCGGC | – | -1.13 ± 0.27 |
| CUACAGCAAUAUUACGGAAG | -1.46 ± 0.085 | -0.751 ± 0.11 |
| AGACAGCAAUAUUACGACUU | -0.384 ± 0.074 | 0.347 ± 0.099 |
| UCUAAGCAAUAUUACGCCUG | -1.6 ± 0.13 | -1.14 ± 0.2 |
| GGGCAGCAAUAUUACGGACC | -0.717 ± 0.25 | 0.0103 ± 0.36 |
| AGAAAGCAAUAUUACGUUAA | -2.23 ± 0.14 | -1.44 ± 0.17 |
| GGUCAGCAAUAUUACGUGCG | 0.397 ± 0.12 | -0.078 ± 0.13 |
| CGUCAGCAAUAUUACGGUAU | -2.04 ± 0.11 | -2.59 ± 0.16 |
| CGGUAGCAAUAUUACGAAGU | -2.86 ± 0.3 | -1.85 ± 0.25 |
| GAGCAGCAAUAUUACGAGCA | -0.982 ± 0.11 | -0.888 ± 0.13 |
| UUCAAGCAAUAUUACGAGGU | -3.41 ± 0.29 | -1.89 ± 0.23 |
| GAAUAGCAAUAUUACGUAGC | -3.4 ± 0.17 | -1.1 ± 0.12 |
| ACCCAGCAAUAUUACGAAGA | -1.74 ± 0.12 | -1.36 ± 0.15 |
| CAAGAGCAAUAUUACGUCAA | -3.43 ± 0.43 | -2.73 ± 0.25 |
| CGAAAGCAAUAUUACGACUG | -0.103 ± 0.064 | -0.811 ± 0.078 |
| GAUAAGCAAUAUUACGGAGA | -3.48 ± 0.36 | -2.78 ± 0.24 |
| GUAUAGCAAUAUUACGAGCA | -2.06 ± 0.2 | -1.12 ± 0.16 |
| GGUUAGCAAUAUUACGCGAU | -2.48 ± 0.23 | -3.48 ± 0.46 |
| CGUGAGCAAUAUUACGUAAG | -0.896 ± 0.1 | -1.14 ± 0.15 |
| CGUAAGCAAUAUUACGCGAA | -3.5 ± 0.24 | -3.88 ± 0.39 |
| UUGUAGCAAUAUUACGAUCG | -1.06 ± 0.14 | 0.103 ± 0.23 |
| UUACAGCAAUAUUACGAACA | -0.742 ± 0.11 | -1.07 ± 0.12 |
| UACCAGCAAUAUUACGGCAU | -1.37 ± 0.089 | -0.029 ± 0.11 |
| ACAGAGCAAUAUUACGCAAU | -3.59 ± 0.32 | -2.42 ± 0.32 |
| GGUAAGCAAUAUUACGCAAU | -1.38 ± 0.11 | -1.44 ± 0.14 |
| CCUUAGCAAUAUUACGAGAC | – | -1.83 ± 0.25 |

| Sequence | self-splicing fitness (ln) (30 °C) | self-splicing fitness (ln) (37 °C) |
| --- | --- | --- |
| ACCCAGCAAUAUUACGAGGG | -3.43 ± 0.15 | -2.47 ± 0.17 |
| CAUAAGCAAUAUUACGCGGC | -3.43 ± 0.28 | -2.53 ± 0.23 |
| CACGAGCAAUAUUACGCUUG | -3.27 ± 0.34 | -2.03 ± 0.47 |
| CCGUAGCAAUAUUACGGAAG | -1.47 ± 0.17 | -2.34 ± 0.41 |
| AACAAGCAAUAUUACGUAUU | -1.77 ± 0.079 | -0.983 ± 0.092 |
| UUGUAGCAAUAUUACGCUAG | -2.06 ± 0.22 | -0.816 ± 0.21 |
| UGCCAGCAAUAUUACGCUCG | -0.839 ± 0.086 | -0.622 ± 0.14 |
| CACCAGCAAUAUUACGUGGU | -3.65 ± 0.1 | -3.16 ± 0.14 |
| CCCUAGCAAUAUUACGCUGG | -4.39 ± 0.27 | -2.89 ± 0.27 |
| UCGCAGCAAUAUUACGUGGU | -3.38 ± 0.13 | -3.24 ± 0.19 |
| AGGAAGCAAUAUUACGAGCC | -2.25 ± 0.23 | -1.32 ± 0.27 |
| UGAUAGCAAUAUUACGAAAU | -2.83 ± 0.34 | -2.19 ± 0.27 |
| CUCGAGCAAUAUUACGUCAA | -3.49 ± 0.3 | -1.81 ± 0.26 |
| UUCAAGCAAUAUUACGCGUU | -2.62 ± 0.12 | -0.189 ± 0.09 |
| CACAAGCAAUAUUACGUCUC | -3.1 ± 0.25 | -2.5 ± 0.22 |
| GCAGAGCAAUAUUACGUCCA | -2 ± 0.25 | -2.98 ± 0.4 |
| ACGCAGCAAUAUUACGCGCG | -2.59 ± 0.18 | -2.07 ± 0.2 |
| CACAAGCAAUAUUACGCGGA | -3.17 ± 0.13 | -1.08 ± 0.084 |
| CAAAAGCAAUAUUACGGUGG | -1.13 ± 0.052 | -0.335 ± 0.073 |
| UGUAAGCAAUAUUACGCGGU | -3.22 ± 0.21 | -2.15 ± 0.29 |
| UUGAAGCAAUAUUACGUCGA | 0.473 ± 0.084 | 0.333 ± 0.093 |
| CGACAGCAAUAUUACGCUGU | -3.04 ± 0.14 | -2.55 ± 0.15 |
| UAAGAGCAAUAUUACGGACU | – | -2.75 ± 0.41 |
| UUCUAGCAAUAUUACGGGGU | -3.67 ± 0.33 | -1.92 ± 0.24 |
| GCCUAGCAAUAUUACGCUCC | -1.64 ± 0.28 | 0.265 ± 0.2 |
| CAUGAGCAAUAUUACGAACU | -3.53 ± 0.19 | -2.95 ± 0.26 |

Source: the supplement of paper PMC7877785
